B1: Saccharomyces cerevisiae Arp8 (natural protein)
chain: MSQEEAESSIIYEEPIDIPLEDDDDEDELEEENSVPLSSQADQENAENESDDSVDNVVGSETPRSVTGLSVDPRDVADEEDEDEEGEDEDEDEDDNDVDNEDENDNDNANENENELGSSRDKRAPPAVQTSKRYKKYPKLDPAKAPPGKKVPLHLLEKRRLGRIKAAEEFAKTLKKIGIEKVETTTLPATGLFQPLMLINQKNYSSDYLKKDDQIFALRDRKFLRNNNTSQISSTNTPDVIDLKSLPHSEASAAPLNDEIDLNDPTATIVIHPGSNSIKIGFPKDDHPVVVPNCVAVPKKWLDLENSEHVENVCLQREQSEEFNNIKSEMEKNFRERMRYYKRKVPGNAHEQVVSFNENSKPEIISEKNDPSPIEWIFDDSKLYYGSDALRCVDEKFVIRKPFRGGSFNVKSPYYKSLAELISDVTKLLEHALNSETLNVKPTKFNQYKVVLVIPDIFKKSHVETFIRVLLTELQFQAVAIIQESLATCYGAGISTSTCVVNIGAAETRIACVDEGTVLEHSAITLDYGGDDITRLFALFLLQSDFPLQDWKIDSKHGWLLAERLKKNFTTFQDADVAVQLYNFMNRSPNQPTEKYEFKLFDEVMLAPLALFFPQIFKLIRTSSHKNSSLEFQLPESRDLFTNELNDWNSLSQFESKEGNLYCDLNDDLKILNRILDAHNIIDQLQDKPENYGNTLKENFAPLEKAIVQSIANASITADVTRMNSFYSNILIVGGSSKIPALDFILTDRINIWRPSLLSSASFPQFYKKLTKEIKDLEGHYVNAPDKTEDENKQILQAQIKEKIVEELEEQHQNIEHQNGNEHIFPVSIIPPPRDMNPALIIWKGASVLAQIKLVEELFITNSDWDVHGSRILQYKCIFTY
notes: Actin-related protein 8 (Arp8), S. cerevisiae; also called Sc Arp8; yeast Arp8
B2: Saccharomyces cerevisiae Arp4 (natural protein)
chain: MSNAALQVYGGDEVSAVVIDPGSYTTNIGYSGSDFPQSILPSVYGKYTADEGNKKIFSEQSIGIPRKDYELKPIIENGLVIDWDTAQEQWQWALQNELYLNSNSGIPALLTEPVWNSTENRKKSLEVLLEGMQFEACYLAPTSTCVSFAAGRPNCLVVDIGHDTCSVSPIVDGMTLSKSTRRNFIAGKFINHLIKKALEPKEIIPLFAIKQRKPEFIKKTFDYEVDKSLYDYANNRGFFQECKETLCHICPTKTLEETKTELSSTAKRSIESPWNEEIVFDNETRYGFAEELFLPKEDDIPANWPRSNSGVVKTWRNDYVPLKRTKPSGVNKSDKKVTPTEEKEQEAVSKSTSPAANSADTPNETGKRPLEEEKPPKENNELIGLADLVYSSIMSSDVDLRATLAHNVVLTGGTSSIPGLSDRLMTELNKILPSLKFRILTTGHTIERQYQSWLGGSILTSLGTFHQLWVGKKEYEEVGVERLLNDRFR
notes: Actin-related protein 4 (Arp4), S. cerevisiae; also called Sc Arp4; yeast Arp4

Molecular target: T1, (H3–H4)2 tetramer (Xenopus laevis, UniProt P84233 1-136; P62799 1-103, H4 E63C, Alexa 488 maleimide on C63 (H4 E63C))
T1 construct: Histone H3, Xenopus laevis; also called H3–H4 tetramer; H3–H4 complex; copies: 2 + 2
Assay: other fluorescence titration; Arp constructs or sub-complex titrated (1 to 5000 nM) into fluorescently labelled histone complexes or nucleosomes kept at 0.5-1 nM, 40 µl in microplates; 20 mM Tris pH 7.5, 150 mM KCl, 5% glycerol, 1 mM TCEP, 0.01% CHAPS, 0.01% octylglucoside; room temperature, 20-30 min; apparent Kd and Hill coefficient from non-linear fit; quadruplicates
Conditions: both partners purified

Row | Binder | Kd [nM]
1 | B1 | 485
2 | B2 | 74.3
